Assay results: patent publication US20240366788A1 (DUKE UNIVERSITY, published 2024)

Molecular target: T1, H2-Q7 (QA2), GPI-anchored MHC class Ib molecule on murine T cells (mouse, UniProt P14429 22-334; P01887 21-119)
T1 construct: whole, on cells; also called H2-Q7/MHC-I
T1 sequence (MHC heavy, looked up): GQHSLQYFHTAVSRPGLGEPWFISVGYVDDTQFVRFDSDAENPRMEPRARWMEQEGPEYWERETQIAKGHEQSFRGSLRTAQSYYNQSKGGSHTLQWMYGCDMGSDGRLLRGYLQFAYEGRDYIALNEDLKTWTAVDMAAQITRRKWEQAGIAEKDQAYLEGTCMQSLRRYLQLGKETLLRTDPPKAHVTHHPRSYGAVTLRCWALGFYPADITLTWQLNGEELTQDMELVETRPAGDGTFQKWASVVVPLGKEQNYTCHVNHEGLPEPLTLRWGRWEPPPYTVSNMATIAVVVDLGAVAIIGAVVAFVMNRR
T1 sequence (b2m, looked up): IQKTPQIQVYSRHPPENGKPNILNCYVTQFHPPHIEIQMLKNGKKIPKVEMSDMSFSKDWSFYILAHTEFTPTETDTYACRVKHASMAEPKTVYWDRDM
Assay: qPCR of surface-bound viral genomes on C57BL/6J T cells, 1 hr at 4 C, with against without PI-PLC pre-treatment

B1: Ark313 AAV capsid (AAV6 capsid variant with 454-VVNPAEG-460) (other)
chain: MAADGYLPDWLEDNLSEGIREWWDLKPGAPKPKANQQKQDDGRGLVLPGYKYLGPFNGLDKGEPVNAADAAALEHDKAYDQQLKAGDNPYLRYNHADAEFQERLQEDTSFGGNLGRAVFQAKKRVLEPFGLVEEGAKTAPGKKRPVEQSPQEPDSSSGIGKTGQQPAKKRLNFGQTGDSESVPDPQPLGEPPATPAAVGPTTMASGGGAPMADNNEGADGVGNASGNWHCDSTWLGDRVITTSTRTWALPTYNNHLYKQISSASTGASNDNHYFGYSTPWGYFDFNRFHCHFSPRDWQRLINNNWGFRPKRLNFKLFNIQVKEVTTNDGVTTIANNLTSTVQVFSDSEYQLPYVLGSAHQGCLPPFPADVFMIPQYGYLTLNNGSQAVGRSSFYCLEYFPSQMLRTGNNFTFSYTFEDVPFHSSYAHSQSLDRLMNPLIDQYLYYLNRTQNQSVVNPAEGLLFSRGSPAGMSVQPKNWLPGPCYRQQRVSKTKTDNNNSNFTWTGASKYNLNGRESIINPGTAMASHKDDKDKFFPMSGVMIFGKESAGASNTALDNVMITDEEEIKATNPVATERFGTVAVNLQSSSTDPATGDVHVMGALPGMVWQDRDVYLQGPIWAKIPHTDGHFHPSPLMGGFGLKHPPPQILIKNTPVPANPPAEFSATKFASFITQYSTGQVSVEIEWELQKENSKRWNPEVQYTSNYAKSANVDFTVDNNGLYTEPRPIGTRYLTRPL
fold reduction in bound virus per cell after PI-PLC treatment (GPI cleavage): ~10 fold
